Measurements taken from US20110311535A1.

Molecular target: NKG2D ligands expressed on YAC-1 cells
Assay: cell-based or functional assay

- ADCC by thioglycollate-elicited macrophages (percent of target cells): 55%
- complement-dependent lysis of YAC-1 cells: 80%
B1: murine NKG2D-Fc fusion protein (IgG2a-IEGR-NKG2D construct) (Fc fusion, mouse, not shown: a dimerising Fc or GST)
chain: IEGRETFQPVLCNKEVPVSSREGYCGPCPNNWICHRNNCYQFFNEEKTWNQSQASCLSQNSSLLKIYSKEEQDFLKLVKSYHWMGLVQIPANGSWQWEDGSSLSYNQLTLVEIPKGSCAVYGSSFKAYTEDCANLNTYICMKRAV
